Reference: PMC2577326

Biological target: PspGI-D138A selenomethionine variant (Pyrococcus GI-H)
Test: crystal structure

**Q.** How did the stoichiometry N turn out when “PspGI-D138A selenomethionine variant (enzyme)” was run?
**A.** Its stoichiometry N is 2.
